The values that follow are results of earlier work, collected in article PMC6126569.

pKd: −log10 of the molar value. Several values for one entry are separate records, joined by “and”; a condition that tells them apart may be missing. Equal entries are not always repeated.

The series deals with Bac7 (Bos taurus) (UniProt P19661). Kind of series: SRCD.
Sequence of Bac7 (Bos taurus) (P19661 131-189): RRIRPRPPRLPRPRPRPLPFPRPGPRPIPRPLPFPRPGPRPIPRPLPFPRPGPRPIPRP

Sequence of SbmA (P0AFY6 whole entry): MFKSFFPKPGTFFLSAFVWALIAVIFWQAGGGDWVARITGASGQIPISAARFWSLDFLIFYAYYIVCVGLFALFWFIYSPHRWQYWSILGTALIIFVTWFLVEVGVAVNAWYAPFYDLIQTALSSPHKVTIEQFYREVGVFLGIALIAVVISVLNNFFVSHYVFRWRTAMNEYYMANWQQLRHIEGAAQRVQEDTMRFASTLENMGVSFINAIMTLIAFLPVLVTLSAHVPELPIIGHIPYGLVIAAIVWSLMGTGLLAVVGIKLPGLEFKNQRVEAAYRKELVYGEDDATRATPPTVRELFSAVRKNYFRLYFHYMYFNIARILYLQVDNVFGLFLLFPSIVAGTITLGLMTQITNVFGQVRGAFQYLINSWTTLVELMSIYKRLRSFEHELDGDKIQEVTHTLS

One may read the pKd as the negative decadic logarithm of the Kd, by convention in mol/L. Regarding SbmA (from UniProt P0AFY6), the pKd is 6.59 and 6.55.
